Kd data for one substance are collected here from patent publication US20090191623A1.

The target of this assay is azurin from Pseudomonas aeruginosa (Pseudomonas aeruginosa) (UniProt P00282). The assay can be described thus: SPR equilibrium titration, azurin immobilised on CM5.
azurin from Pseudomonas aeruginosa (Pseudomonas aeruginosa), sequence (P00282 21-148 limits assumed): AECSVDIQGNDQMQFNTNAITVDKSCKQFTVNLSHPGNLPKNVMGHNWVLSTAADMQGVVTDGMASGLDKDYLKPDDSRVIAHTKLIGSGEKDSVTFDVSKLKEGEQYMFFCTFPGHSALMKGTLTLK

In turn, “NCAM (from UniProt P13591 20-718) (receptor)” showed a Kd of 20 nM.
